# Measurements as given in patent US20230242601A1 (published 2023).
# Target: FABP3 fused with a His-tag at the N-terminus
# Test: QCM
# FABP3 fused with a His-tag at the N-terminus, sequence (chain, as listed by the source): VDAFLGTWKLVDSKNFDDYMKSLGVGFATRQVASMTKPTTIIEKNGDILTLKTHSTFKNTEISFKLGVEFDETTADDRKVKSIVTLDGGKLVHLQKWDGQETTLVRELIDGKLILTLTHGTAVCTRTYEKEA
row,Binder,Kd [nM]
1,EEGFQDFEPEA [SynP130-140 Y133F/Y136F],2.1
2,EEGWQDWEPEA [SynP130-140 Y133W/Y136W],6.2
3,EEGFQDWEPEA [SynP130-140 Y133F/Y136W],6.1
4,EEGYQDFEPEA [SynP130-140 Y136F],7.7
5,EEGYQDWEPEA [SynP130-140 Y136W],6.3
6,EEGYQDYEPEA [SynP130-140 peptide],6.1
